According to paper PMC12657969:

T1: GgeAgo_DM (Geobacillus genomosp. 3, UniProt S5Z517 1-710, D502A;D571A)
T1 sequence: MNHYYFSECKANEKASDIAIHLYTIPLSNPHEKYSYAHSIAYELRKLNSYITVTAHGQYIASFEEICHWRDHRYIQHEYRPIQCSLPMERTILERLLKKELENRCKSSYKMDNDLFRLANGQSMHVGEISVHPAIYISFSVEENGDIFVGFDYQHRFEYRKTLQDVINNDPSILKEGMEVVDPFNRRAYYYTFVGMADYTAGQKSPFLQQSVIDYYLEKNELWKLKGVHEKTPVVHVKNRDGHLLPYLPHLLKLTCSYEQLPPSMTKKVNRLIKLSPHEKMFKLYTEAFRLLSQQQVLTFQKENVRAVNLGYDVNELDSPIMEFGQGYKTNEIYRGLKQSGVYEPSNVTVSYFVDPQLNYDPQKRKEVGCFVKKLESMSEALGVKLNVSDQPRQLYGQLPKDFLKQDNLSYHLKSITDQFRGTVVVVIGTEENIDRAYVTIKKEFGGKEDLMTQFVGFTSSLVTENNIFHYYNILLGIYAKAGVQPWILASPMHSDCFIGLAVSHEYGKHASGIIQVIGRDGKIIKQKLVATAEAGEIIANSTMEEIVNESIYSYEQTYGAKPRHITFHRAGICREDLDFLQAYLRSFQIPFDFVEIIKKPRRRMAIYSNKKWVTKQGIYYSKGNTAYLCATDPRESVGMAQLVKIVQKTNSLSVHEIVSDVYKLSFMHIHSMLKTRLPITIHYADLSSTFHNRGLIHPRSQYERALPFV

T2: GgeAgo (Geobacillus genomosp. 3, UniProt S5Z517 1-710)
T2 sequence: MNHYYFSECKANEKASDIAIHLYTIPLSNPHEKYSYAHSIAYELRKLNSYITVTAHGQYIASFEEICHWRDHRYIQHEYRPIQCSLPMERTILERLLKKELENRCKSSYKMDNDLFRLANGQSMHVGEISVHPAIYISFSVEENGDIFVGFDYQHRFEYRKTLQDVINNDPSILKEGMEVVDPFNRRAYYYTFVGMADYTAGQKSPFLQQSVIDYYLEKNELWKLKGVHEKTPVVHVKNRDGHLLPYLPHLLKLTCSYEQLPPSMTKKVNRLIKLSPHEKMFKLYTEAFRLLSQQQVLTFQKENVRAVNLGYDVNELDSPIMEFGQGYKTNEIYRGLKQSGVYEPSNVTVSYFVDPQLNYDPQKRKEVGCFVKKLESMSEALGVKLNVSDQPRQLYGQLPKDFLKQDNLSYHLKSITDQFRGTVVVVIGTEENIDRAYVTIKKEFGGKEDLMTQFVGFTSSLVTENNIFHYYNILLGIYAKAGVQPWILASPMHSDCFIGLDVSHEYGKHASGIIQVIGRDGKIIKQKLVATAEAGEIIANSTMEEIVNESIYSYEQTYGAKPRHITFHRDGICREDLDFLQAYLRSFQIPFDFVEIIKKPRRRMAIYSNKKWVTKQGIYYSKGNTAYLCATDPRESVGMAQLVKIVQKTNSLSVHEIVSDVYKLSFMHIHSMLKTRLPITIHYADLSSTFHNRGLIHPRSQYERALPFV


What was measured:
[1] = target: T1, GgeAgo_DM; test: fluorescence polarization
[2] = target: T2, GgeAgo; test: fluorescence polarization

Binder	Kd [1] [nM]	Kd [2] [nM]
5'P-gDNA / T-tDNA target (mixed, guide 5' phosphate) DNA 1: TGAGGTAGTAGGTTGTAT DNA 2: AAACGACGGCCAGTGCCAAGCTTACTATACAACCTACTACCTCAT	8.69 ± 1.28	–
5'OH-gDNA / T-tDNA target (mixed, guide 5' OH) DNA 1: TGAGGTAGTAGGTTGTAT DNA 2: AAACGACGGCCAGTGCCAAGCTTACTATACAACCTACTACCTCAT	20 ± 2.29	–
5'P-gDNA / U-tRNA (RNA target) (DNA:RNA, guide 5' phosphate) DNA: TGAGGTAGTAGGTTGTAT RNA: AAACGACGGCCAGUGCCAAGCUUACUAUACAACCUACUACCUCAU	10.7 ± 1.11	–
5'OH-gDNA / U-tRNA (RNA target) (DNA:RNA, guide 5' OH) DNA: TGAGGTAGTAGGTTGTAT RNA: AAACGACGGCCAGUGCCAAGCUUACUAUACAACCUACUACCUCAU	32.2 ± 4.9	–
TGAGGTAGTAGGTTGTAT (ssDNA, 5' phosphate) [5'P-gDNA (T-gDNA iFAM)]	–	8.23 ± 1.47
TGAGGTAGTAGGTTGTAT (ssDNA, 5' OH) [5'OH-gDNA (T-gDNA iFAM)]	–	11.1 ± 1.88
